{"source": "the DeepSol protein solubility set", "data": [{"test": "soluble on expression in E. coli; label from the status in PepcDB or PDB records", "values": [{"sequence": "MSSAAKNFYQVVKSAPKGRFKGIKRDYTVEDVLKLRGSIDIDYTLATRGANKLWQLLHTEPFVPALGAQTGNQAVQMVRAGLKAIYLSGWQVAADANSAGDMYPDQSLYPANSGPELAKRINRSLRRADQIEACEAEDYLAQRDWYAPIVADAEAGFGGALNCFELMKAYIEAGAAGVHYEDQLGSEKKCGHMGGKVLIPTAQHIRHLNASRLAADVCGVPTIIVARTDAESSRLLTSDIDPRDHPYIDYEAGRTIEGFYRLKDSTAIQYCIDRAIQYAPYTDLIWMETSHPTIADAREFAEGVHKQYPDKMFAYNCSPSFNWKKHLSPSQMEKFQKELGAMGFKYQFITLAGYHANSYSMFDLARNYKEKGMLAYSGLQEGEFAAEKHGYTAVKHQREVGTGYFDAVSRAVTGGLSSTTALSGSTEEAQFQTAVASQDEEILSLTAQNVAGDEKILTPDALRFLHDLNTEFNPRRLRLLSKRNQVQADINNSLWFPDFNKETEVLRSDQGWKGAEIPRDLQDRRVEITGPTDRKMVINAMNSGANVFMADFEDSNSPTWRNQLEGQINLYDAVRNNISYTHPTTKKEYTLNEKHAVLKVRPRGWHLPEKHVLIHNQPTSGSLFDFGLFVFHNAKALIAQGSGPYFYLPKLQSAEEAQLWADVFKYTEDKLGLARGTIKCTVLIEHLLASFQLHEIIHALKDNIVGLNCGRWDYIFSYIKTFQNHRKFLLPDRFQIGMTAPFMRNYSLEVIKACHLRGIHAMGGMAAQIPIKHDQVANDKAFALVRADKEREATDGHDGTWVAHPGLVPLAKRVFDQMMPKPNQISKNLTRANCTKEDLTVIPEGTRTEAGFRHNISVTLGYLDSWLRGTGCVPLYNLMEDAATAEISRAQLWQWLHHDAKLEDGRTIDAGLVKQTIAAETERRLIRAGSVVNRIPEAADLLEKFVTEEKMSDFLTTDAYDRLVSEGY", "soluble on expression in E. coli": "not soluble"}, {"sequence": "MSSAGVALSPVRSEPLIMPLVRANSCLDSYPDDTIMIYLTLPGSVIPMRVLESDSIESVKLRIQSYRGFVVRNQKLVFGGRELARSNSNMRDYGVSEGNILHLVLKLSDLQVLDVKTTCGKHCRFHVERGRNIGYVKKQISKKRGDFVDPDEQEILYEGEKLEDQSLINDICRNDDSVLHLLVRRSAKVRVKPVEKNFELSIVAPQAKDKKGREAKSIVPPKKLSLEPVVVNSKAKVPLVVKDMIQSASDGLKSGNSPVRSSEGTGGAYFMQGPSGNKFVGVFKPIDEEPMAENNPQGLPLSPNGEGLKKGTKVGEGALREVAAYILDHPKSGNKSMFGEEIGFAGVPPTAMIECLHPGFNHPKGIKTKIGSLQMFTENDGSCEDMGPLSFPVEEVHKISVLDIRLANADRHGGNILMTKDESGKLVLVPIDHGYCLPESFEDCTFEWLYWPQARKPYSAETQEYIRSLDAEEDIDLLKFHGWKMPAETAQTLRISTMLLKKGVERGLTAFEIGTIMCRETLSKKSLVEEMVEEAQEAVLPGTSEAAFLEALSDVMDYHLDHSQEH", "soluble on expression in E. coli": "not soluble"}, {"sequence": "MSSEAVAQATAATTSPEHGVPTSSATPTPPPSKGGGAGGGGGGEQQQVPFQMIPPGHFFANPFLNPYIPTAGAPAQEGEAQPQMVFSPAQYQEVMHHYFQQMMAASGAQFPIPFPMQFQPALQQPRPSSQASSSHRSEDDNGRQTAGSVVSSNVSPNHREVRPAEDSTETSGVVQNNDELLVPTSTSSDVTIGDVIEKSDSPENSQESAGGEEKSEEKRKLSGDRTDSLIRKQMSEMEKEITRRSQNKNIKTSGLSYTAPAPPSTEKSAPKESLNQLRSSFNLPDDSTTVGPVGPSTVPQQSQQFANNSMFMANAGNFVQNAFPIGVTMTPQATFGAAPGFQMMQPHQHNLFMQQPNPTFVNNGTNPFLQTQATLPNFVQNGTAPLVPTVSAQQFTPEQLAAAFAQQQIAQSAAPTPFDSPPPSMPSTSSGPSGALAPPPPPSHPIPRRVSGNGWPEENKENGTSTSTTNGAQSVPAAAGTDDPVWVLRDSYLKKMQREQRTSEEEEMSWQEAATAAQEAAENGGGDDQEEQETDRLLNGGTTGASTKGAERRGSVDKKKNSKETMVHEPAVLIEGVLFRARYLGSTQMLCESRGSKAARMAQAQEAVARVKAPEGDVQPSTEIDLFISTEKIMVLNTDLQRISDTDVRQDILMDHALRTISYIADIGDLVVLMARRMSTSHSDESCSDGDSSGGGVRKTPKVICHVFESDEASFIAQSIGQAFQVAYVEFLRANGIDDPSYLRQIDYQEVLNSQELLGDELEMFAKKETQKEVVVPKKAGEPLGIVVVESGWGSMLPTVVLAHMNPVGPAAHSNKLNIGDQIININGISLVGLPLSAAQTQIKNMKTATAVRMTVVSTPPVVEVRIRRPDTKYQLGFSVQNGVICSLLRGGIAERGGIRVGHRIIEINGTSVVAVAHDRIVNMLATAVGEIHMKTMPTSMFRLLTGQEQPQYI", "soluble on expression in E. coli": "not soluble"}, {"sequence": "MSSEFISKVDKEARRKAANILRDKFLNLVEQLKKGEPLVMEIPMRTLSNAIYDEKRKLLLLGEKKLRRNFLDLNEAKRFMQTVLMASIIYDALVSDEYPTIRDLYYRGKHSLLLKSIEGNKIVSEENTWDEQKESDSVIVDIEVFTSLLREEMLILSKEKGKVVGNLRIRSGNDVIDLSKTGHGAYAIEPTPDLIDFIDVDAEFVLVVEKDAVFQQLHRAGFWKQYKSILITSAGQPDRATRRFVRRLNEELKLPVYILTDADPYGWYIFSVFRIGSISLSYESERLATPDAKFLGVSMGDIFGNSRKKPYLSEAERKNYIIKAKDADIKRAEEIKNYEWFKTKAWQEEINTFLQRKAKLEIEAMASKGLKFLAFQYIPEKITNKDYIA", "soluble on expression in E. coli": "soluble"}, {"sequence": "MSSERACMLCGIVQTTNEFNRDGCPNCQGIFEEAGVSTMECTSPSFEGLVGMCKPTKSWVAKWLSVDHSIAGMYAIKVDGRLPAEVVELLPHYKPRDGSGSATIWGVRCRPGKEKELIRKLLKKKFNLDRAMGKKKLKILSIFQRDNYTGRIYIEAPKQSVIEKFCNGVPDIYISQKLLIPVQELPLLLKPNLEHHHHHH", "soluble on expression in E. coli": "soluble"}, {"sequence": "MSSIEWNEKTFAKFAYLSDPRTKGELVAYVLTKANLKDNKYENTIVIENLKNNARRFIENATMPRISPDGKKIAFMRANEEKKVSEIWVADLETLSSKKILEAKNIRSLEWNEDSRKLLIVGFKRREDEDFIFEDDVPAWFDDLGFFDGEKTTFWIFDTESEEVIEEFEKPRFSSGIWHRDKIVVNVPHREIIPQYFKFWDIYIWEDGKEEKMFEKVSFYAVDSDGERILLYGKPEKKYMSEHNKLYIYDGKEVMGILDEVDRGVGQAKIKDGKVYFTLFEEGSVNLYIWDGEIKPIAKGRHWIMGFDVDEIVVYLKETATRLRELFTWDGEEKQLTDYNDPIFAKL", "soluble on expression in E. coli": "soluble"}, {"sequence": "MSSIQGYKMKEYSMPTKRYCQTLSLKNNPILIEEYRKIHSEEKAWPEIRAGIRAVGILEMEIYILGSQLFMIIETPLDFDWEIAMDKLSNLPRQAEWEKYVSKFQDCPYLSSSAEKWKLMERMFYLYED", "soluble on expression in E. coli": "not soluble"}, {"sequence": "MSSKNSLSDKIKITFQYIMPKHAISRLVGKLAAAKMGWLTTKLISMFIKAYGINMNEAKLKKASDFDTFNNFFTRELEEGARIIDNDENTICYPVDGAISQQGDIIDGQLIQAKGFNYSVTSLLGGDEKTAAPFQGGKFSCIYLAPKDYHRIHMPMAATLREMIYVPGELFSVNPLTAQNVPDLFARNERVVAIFDTEMGELAMVLVGATIVASIETTWAGTITPPAGKDIFRWQYPKDGADAITFEKGDEMGRFKLGSTVVSTFAPNMISEFATDAGPGTVTRLGEIYAALDKSASLEHHHHHH", "soluble on expression in E. coli": "not soluble"}, {"sequence": "MSSLFVVGIGPGSNDLMTPQASLAIERSEYVIGFSLYVSFIKEKFPNKIYISNGMQGEIERAKKAIELARSGHNVSIISSGDAGIYGIAGAVFEILSTLEDNMPEVSVVPGIS", "soluble on expression in E. coli": "soluble"}, {"sequence": "MSSLMCHGGGLPEVRVARPSGRAERIAALGELCRAGSIVHIGEAARQIGASEITIRRDLSVGAGGLVCLGGYVMRASEGAEGYSLTAAEASEAGAKEALAVRAAALIEPGDTVFLDCGTTTPYLAARVPQNARVTVVTQALNIAETVARLTGVNLILLAGIYHPETASFSSEEAVAMLGRINITKGFFSAAGVHETEGVTCFHFHEVPVKRAALARSRQPYLVCDGSKWGRLRPATYARLEEFEGWIGAPDRAALEHHHHHH", "soluble on expression in E. coli": "not soluble"}, {"sequence": "MSSNQYIQSLELTNFTVLPNDTFEFSENLNVIVAENGCGKTHLLKILYSLLEVTSNTKNRLLKTELQKSFADKLLNVFRPDSLGRLSKRLQGRGRTEIVLKLQNGTTHSSLNFSSNSSSQVNVQSIGLKENEYTPTPIFLPSRELITLCPWFTSLYQNQSIPFEETWFDTCMQLNHPLAKGPRETKIRELLEPIENAMGGKVSEEQGRFYLSLTNTGGKIEAPLVAEGLRKFVMIARLIATGALLDKGYLFWDEPEANLNPKLIKVAARIIWSLSQQGIQVFIATHSLFLLRELELLKLENNTDLPVRFFSLIASDDGTKVEQGNSINDLNTLILLDENIMQADRYLNI", "soluble on expression in E. coli": "not soluble"}, {"sequence": "MSSQPRFIHLRTHTDFSMIDSIVKVKPLVKACAANEMVAMGLTDFTNFCGVVSFYSEMLSSGMKPIIGADVKVKSPLCGDEYFDLTLLAKNNEGYRNITLLLSKAYQRGYNDLPYIDQDWLIEHRDGVIILSGGTQGDVGKKLLKENVAEIESAVAFYQEFFADHFYLALSRTGRPNEERYIQAALKLAERCDLPLVATNDVMFLNTEDFEAHEIRVAIHDGYTLDDPKRPKCYTSQQYFRSEEDMCKLFADIPSALENTLLIAQRCSVTLRLGQYFLPQFPTGDLSTEDFLVQKSKEGLEERLVFLFPDEKVRLEKRPKYDERLQVELDVINQMGFPGYFLIVMEFIQWSKDNDIPVGPGRGSGAGSLVAYALKITDLDPLEFDLLFERFLNPERVSMPDFDVDFCMDGRDRVIEHVAETYGRGAVSQIITFGTMAAKAVIRDVGRVLGHPYGFVDRISKLIPPDPGMTLAKAFETEPQLQTAYDSDEEVRALINMARKLEGVTRNAGKHAGGVVISPTLITDFAPLYCDNEGLHPVTHFDKNDVEYAGLVKFDFLGLRTLTIIKWALDIINVRMVREGKPRVDIAAIPLDDPESFELLKRSETTAVFQLESRGMKDLIKRLQPDCFEDIIALVALFRPGPLQSGMVDNFIDRKHGREEVSYPDAEYQHASLKPILEPTYGIILYQEQVMQIAQVLAGYTLGGADLLRRAMGKKKPEEMAKQRLVFKEGAEKNGIDGELSMKIFDLVEKFAGYGFNKSHSAAYALVSYQTLWLKTHFPAEFMAAVMTSEMDNTDKIVGLYDECLRMGLKVTPPDINIGKHHFSVNEQGEIVYGIGAIKGVGEGPIEALVAARNEGGIFKDLFDLCARVDLKKINRRTFESLIMSGAFDKLGPHRAALSKNLEDALRASDQHAKDEAMGQTDMFGVLTETHEDVENAYANTPPYTEKQILDGERETLGLYLSSHPVSRYLKELSHYTSTRLKDLAPNRRGQISTVAGLVVASRIAMTKKGNRLGIATLDDRSGRLDLTLFGESLEQFGEKLQKDTVIVASGQVSFDDFSGGLKMTVRELMTLDEARSRYVKSLAISLSEHQITPSFIKQFKALLEPVSGGTLPINVYYQSPKGRALLRLGVQWSIIPTDEILTELVNLLGESAVELEFE", "soluble on expression in E. coli": "not soluble"}, {"sequence": "MSSSEGNSDASAPGTPVKSSTPSSRGSSPDSPKKQEPSKKRAILNESDDDDDSRPAPRQLSDSSDDNIHPRGGGEKSSPGAGGGLFGDLSGSSDDDSDREGKPKESNTRARLSDSDAESRGSLNDLQGIVMANPDEIDEDEKAKEHVHDTEMVTGRVTLEYAADPPHFVRMPNFLSVATHPFDPQHYEEDEDDEQAKLDDEGRTRLKLRVENTLRWRVRKDENGKEIRESNAKIVKWDDGTMSLYLGNEIFEVSLVPLNSNNLPHLYVKQPTLMSAQAVLTHRMTFRPHSTDSQTHRKVTLNMADRSRKNAQVKVMDDVGQNPEITRRENARKEEESLRAHIRRTQMVRNNFKVRGPRYAGQYSDDEDMPTSSRKGKKKEAPIIGASSESEDDHADTTKKSGSDSDSDEEYRKRKQQQKKQIVTSDEESD", "soluble on expression in E. coli": "not soluble"}, {"sequence": "MSSSNWEKLKKKLDSAKSGRVEKKHSNEKKYLKSVKGKNNENENSYIVDKKRMNELKKFAKENDIPESQVLDAYGVDASKLTRKTNLETLGKYIAMDCEMVGVADDMSVLARVSIVNYHGHVVYDTYVRPKEKVTDWRTWVSGVKSFHMRDAPSFEKVQAEVAKILDNRVLVGHAVHNDLKVLLLSHPRRMIRDTSRFSGYRKLAKGRTPGLKKLAEVILGRDIQSGQHSSVQDAQATMELYKKVKKEMDEVAFKGLSKS", "soluble on expression in E. coli": "soluble"}]}]}
